Assay: soluble on expression in E. coli; label from the status in PepcDB or PDB records

Row | Sequence | soluble on expression in E. coli
1 | ADKAASGVLTKLPQKQIQEMKEAFSMIDVDRDGFVSKEDIKAISEQLGRAPDDKELTAMLKEAPGPLNFTMFLSIFSDKLSGTDSEETIRNAFAMFDEQETKKLNIEYIKDLLENMGDNFNKDEMRMTFKEAPVEGGKFDYVKFTAMIKGSGEEEA | soluble
2 | ADQLLRKKRRIFIHSVGAGTINALLDCLLEDEVISQEDMNKVRDENDTVMDKARVLIDLVTGKGPKSCCKFIKHLCEEDPQLASKMGLH | soluble
3 | AEAAKPATAADSKAAFKNDDQKSAYALGASLGRYMENSLKEQEKLGIKLDKDQLIAGVQDAFADKSKLSDQEIEQTLQAFEARVKSSAQAKMEKDAADNEAKGKEYREKFAKEKGVKTSSTGLVYQVVEAGKGEAPKDSDTVVVNYKGTLIDGKEFDNSYTRGEPLSFRLDGVIPGWTEGLKNIKKGGKIKLVIPPELAYGKAGVPGIPPNSTLVFDVELLDVKPAPKADAKPEADAKAADSAKK | soluble
4 | AFINAHTHFEFSNNKASFDYGSFSGWLGSVLNNGGAILENCQGAIQNAISTQLKSGVGSVGAISNHLIEVNLLKESPLNAVVFLEFLGSSYSLEKLKAFEAKFKELKDLEDKKLKAALAVHAPYSVQKDMALSVIQLAKDSQSLLSTHFLESLEELEWVENSKGWFENFYQHFLKESHFKSLYKGANDYIDMFKDTHTLFVHNQFASLEALKRIKSQVKNAFLITCPFSNRLLSGQALDLERTKEAGLSVSVATDGLSSNISLSLLDELRAFLLTHNMPLLELAKIALLGATRHGAKALALNNG | not soluble
5 | AHHHHHHASAKWVCKICGYIYDEDAGDPDNGISPGTKFEELPDDWVCPICGAPKSEFEKLEDGSRFIDSNVFLYAMIKPKGNTSKEILKKKEKAKKILLRVENGEDVVTTLIHLSEIANILEAKVNLTTAVRFLENLLLAENVKILPVSVEEYLKAVLISKEKGISVNDALAYLKMKELNIKEIYTFDRHFQNLDVEVIQD | soluble
6 | AHHHHHHGSGASPVIVPVRCFTCGKVIGDKYYEFKRRVEAGEDPEKVLDDLGLERYCCRRMLLSHVELIDDIMHYRVY | not soluble
7 | AHHHHHHGSGWWYTTNLRSRSNDMDKPEEILNEKDIIKRAYKFGFYVGLHGHTDWFGWVAEVKKKIYEEAKHLGVYEEVKKAYIKGKKAGRVEREKRIHLGLMKQTTSEIPEKIKIVSIERNRGSIASLNFPKIEDMPKTIKKPRFFRLPKILRGGEE | not soluble
8 | AHHHHHHGSKILWAPWRIEYIRAPKHEGCIFCDFPRENRDRERLILYRGKHAFIIMNNYPYNPGHVMVAPYRHVASVEDLTDEEMLEIMKLAALIMKAIRKVMKPDGFNLGFNIGKVAGAGVDGHVHLHIVPRWNGDTNFMPVIADTKVIPESLEQAYEELKKALEEIENAE | soluble
9 | AHHHHHHGSMLKEVHELLNRIWGDIFELREELKEELKGFTVEEVSEVFNAYLYIDGKWEEMKYPHPAFAVKPGGEVGATPQGFYFVFAFPKEELSKEFIEDVIRAFEKLFIYGAENFLEDFYNFEHPISGDEVWDRIVNSDEEMINFEVDLGFDKEEVKREIKRFIELARRYNLL | soluble
10 | AHHHHHHGSNFQQEILIIKSEIYPIVSKHYPKNTRREVISLYDLITFAILAHLHFNGVYKHAYRVLIEEMKLFPKIRYNKLTERLNRHEKLLLLAQEELFKKHAREYVRILDSKPIQTKELARKNRKDKEGSSEIISEKPAVGFVPSKKSFTMGTS | not soluble
11 | AHHHHHHGSPTWEELYKNAIEKAIKSVPKVKGVLLGYNTNIDAIKYLDSKDLEERIIKAGKEEVIKYSEELPDKINTVSQLLGSILWSIRRGKAAELFVESCPVRFYMKRWGWNELRMGGQAGIMANLLGGVYGVPVIVHVPQLSRLQANLFLDGPIYVPTLENGEVKLIHPKEFSGDEENCIHYIYEFPRGFRVFEFEAPRENRFIGSADDYNTTLFIREEFRESFSEVIKNVQLAILSGLQALTKENYKEPFEIVKSNLEVLNEREIPVHLEFAFTPDEKVREEILNVLGMFYSVGLNEVELASIMEILGEKKLAKELLAHDPVDPIAVTEAMLKLAKKTGVKRIHFHTYGYYLALTEYKGEHVRDALLFAALAAAAKAMKGNITSLEEIREATSVPVNEKATQVEEKLRAEYGIKEGIGEVEGYQIAFIPTKIVAKPKSTVGIGDTISSSAFIGEFSFTL | not soluble
12 | AHHHHHHGSQRALVTLTPSESKRLIAKAVVAMDEVQKALKNGFIYIATGTTAAYIAEELLGEKIEKEKWTVGTISKGRTCVTPKTTWPKHLVLYKGKLFEGEPLEALKEMGPEDVFIKGGNAIDINWNVAVFAAAPDGGTIGKTFGWTITKGVFTITPISLEKFVPTPVKESAKLTGIYSFNWGTGLYAALVPIPHAHPVTEVEAYRILAGVEAIPIAAGGAGGAEGSVTLVLEGDDENMEKAKEITKAVKGEPPLEPYTEDCSICPFAKICGLGSGSF | not soluble
13 | AHHHHHHGSRVVKKIGLIGGMTPESTCYYYRKYIEISRKKFRKYEYPELLIYSINFRDFFMNPEGWEGRKRILINAAKALERAGAELIALTANTPHIVFDDIQKEISVPMVSIIDAVAEEILSHGLKKVLLLETKTTMSSGFYVNALKNKGLEVVVPNEEEQEELNRIIFEELAFENLKSKRWIIDLIERYAKEEGVEGVILGCTELPLAVKRGDVSIEVFDSAEIHIKKLIEVASQSI | not soluble
14 | AHHHHHHGSVKHYSVKVITAKSRTRLGLQLADARINELFNMIQDKTLRRDPLLISRRLVPSWATLNSFMLYFGLILAKEEVSISCTLESAT | not soluble
15 | AHHHHHHGSYVIIMGAGRIGTLVAKMLENSGHDVAIIEMNKDRARAVSDIVSGLVIEGDATDQNILESANVRNADAFVALTGKDDANILACILAKHLNPRIMTILRITDPRKKKIFEEVKDLKKYFDVVVSPEDIAANYIFRVVITPGFDRVLLPREGAEIIQFHIDENSKVAGKAVKDLNLPRDSLIIAIYDEKGNLIIPSGETILPKRGTVVVFAKDSALKEIKKIMEEKVEESEE | soluble
16 | AHHHHHHMVHITLDRNTANSWLIISKDRRQVRMGDTHQNVSDNKERFSNYPMVLGAQRFSSGKMYWEVDVTQKEAWDLGVCRDSVQRKGQFSLSPENGFWTIWLWQDSYEAGTSPQTTLHIQVPPCQIGIFVDYEAGVVSFYNITDHGSLIYTFSECVFAGPLRPFFNVGFNYSGGNAAPLKLCPLKM | soluble
17 | AHKKIFLVEDNKADIRLIQEALANSTVPHEVVTVRDGMEAMAYLRQEGEYANASRPDLILLDLNLPKKDGREVLAEIKSDPTLKRIPVVVLSTSINEDDIFHSYDLHVNCYITKSANLSQLFQIVKGIEEFWLSTATLPS | soluble
18 | AIAASLSDQSGSIGSEQTRPSGAIPVESLPPQALEQLIASLQQEVEQLADALQQLNFANQRWTLCKQSIEAFAEETTRVDLPGAQSRATDAISSTASAKPETSVEVNQNQRLLVPLSRSLYVLGRVINPERCLIDIGTGYHVERKLADAAEFFDRRLKHVRGSMRQLTLKIDQNQQQMQTIREILVRKLAGAQQAAEHT | soluble
19 | AIADPAEVEFLAEKEMVKIIPNFSLDKIYLIGGDLGPFNPGLPVEVPVWLALNLKQRQKCRIVPPEWMDTDKLEDIREQERKLDTFTPIPNPYYMELTKLLLNHAADNIPKADEIRTLVKDIWDTRMAKLRLSADSFISQQEAHAQLDNLTLMEINTTRSFLLDSLNYMYKLRSNLQPGRSKDY | soluble
20 | AIAETGGGAPLTKSSEAVEGDFVEDRLRGNEAFRRGNYEAAASYYSEALEKIRLAKTELPTQDRYPWSLEEVLIRCNRALVFLRLASAAALPNVGSNRFEEDACTAEHESEEATPCSLWQRAAEDASVALDLITDFEDEGESERVTELRVKALYRRMVANKGQNNFADAAKDAEALAKIRPEYRSEAELLAQRAAAESERAKQEALQKLKEVGNSFLSLFGVSIDNFQTKRNPDGTYSVSYCPKS | soluble
21 | AIAFRHTLSVDPSEQLSQDFADPVTDSGYESDEEAAAAATASLSGEEAALWNLVDPQQRLIFVLDGPAAQTLRVKRTGNLERQVVNIHRLPLERAPTVATSLLAATRPQHLVVALRTIEPHQAAAILTSTSYPSLSNVENASQVLVLANDLVQIDDPLLRPLWSDEGTQQNRIQLRWVETGCIGGITAALLAAGCWLRIPVLALLAVEDDDGPSPATLEALLLAAERFGCFTRADWEIRMPNLRQLLAKRQLLYI | soluble
22 | AIAITGETEPACVEDASQLAEQRNGAPVMEAGCAAVPVEANATKRGYWRQRTLHSWFIGRKPQRTCIAVDIDEVLAFFVPELCAFHNKRYGTRLQATDFHSYRFAEVWGGTDTDAIRKVHEFFRTPAFQELQPIPGAKQVLQSRLARFRFVVVTSRQLVIEQETRAWLDKHFSGIFEAIYLGNQWALHPNGEHGTGVGSAAQEPQRLFANRRRKSQVCKACGAAVLIDDLPHNLLDCSENGVFGVLFDFQGQYGWSKSPAFESKDIAVVHSWEAVGELLDRL | soluble
23 | AIAKLPISTISPIHYMKSVVSSRETRNESNKSRRTFASTEWNKIIRETLYLETVYIPVDATSHSPDIIFKLQSPVEPKVLTVGVACKGRWKSEGIGWSDIIDEAKKFLDPVYDQVLSSAMDYHHCMLIIVSTKLSLNVSNELGNQSRCYSSGMFIGGDSFKVPDNCELVILCERDVQMLIDKEILNGLERAFCVSHNPTFWDFGLDLLDRIRNSFLSWQ | soluble
24 | AIAKNFNDEEHNSQLTDEVLPEPEDARVIANILKAVGVESFDTRVVAQLVEFVYKYIGEVLELSKTFAQYAEREDIRQDDVKLAISSLLSKSFTQPPSRDVLLQLCRERNAVPLPVVDTYVGIQLPPKEFQLTTRNYQLKRKTTTESVASQELSEATGNISIGESSLQPNEEESNTMNT | soluble
25 | AIALVEDSGHHLPESADIENALDLLLKAQLERAFGPELAEHFWAARQPRTLDERLAFIRKCWIGVFKDSPLSTFGLERLEQLERLCRSKRRGRELSAAEHHQFAEELARLWEQVQRLLPRAAPETSYASSASAGGVHSGDAHTPATLSDAESAHAAPEAMRIEAPATSARSASGCMARVSSDVAAAATNVSLVVLDGENIAWAHGQNAVFSPKGIAIAVDFFRKRGYRCVVFLPDYRRKRADLPTVSASDALVFVPAGEYDDTFALGYAVGHDAILVTNDLLQDHLDQFYPDEGEAREALRKWLGSHRCSFTFVGDEFLPNPHFFLP | soluble
26 | AIALVSHGAIVKSAPKHWNGSKCPIRMQVRVPDPDRRSLLRAGAHIILGGLLATVIPGTSPSIAKIREKPTDKGEEAPKIDDEKELDKYVSGLKYEEELYENPDPAEKEVYRTPRVEREPEYKKKEDEILEKESKVLKEEAREAARESEVLRQEFEKR | soluble
27 | AIALWKLVENVKYEDIYEDRHDGVPSHSSRLSQLGSVSQGPYSSAPPLSHTPSSDFQPPYFPPPYQPLPYHQSQDPYSHVSDPYSLNALHQPQQHPWGSRQRQDLQGTESGGLLPQPRASLPQLSGLDPRRDYSTVRRPDVLLHSTHHGLEAGMGDGLSLHGLAHGMDDVQAVEDLNGAMNILDRTPLGNSRPSPILEPGIQSCLSHFSFITHGFGSPAICAALTALQNYLTEALKGLDKMFLNNPTPNRHTPADGSKGGEKEEKHRK | soluble
28 | AIAQRFLDSISAATQAKSPAEHETLVAMADLYAIITCVEYLERAWRANAVSDEDYTRNCSRLIAQFRATRQLVMDDVPSVISFLEEYHLAARAAMNRLQVGVPATVEHANSSDETRRRNFTAAAIQATEAFLTFRDALELGERSVDRLLPYLREILLVLGRMGAVFGTADGDATVQRERIVQWVRRLDAMHAYEQITEEDKRQLAHDVDTLYDTFRRRVGELEM | soluble

From the DeepSol protein solubility set
